Data from paper PMC6468305.

Molecular target: S. epidermidis Csm3 (SeCsm3) in the Cas10–Csm effector complex (S. epidermidis RP62a)
Assay: cryo-EM structure

## S. epidermidis Csm3 (SeCsm3) in the Cas10–Csm effector complex (natural protein)
  stoichiometry N: 5
